Assay results from the RNAGym collection of RNA variant scans (doi:10.1073/pnas.2313332121).

B1: TPR t1 (parent)
chain: GACCAAUCUGCCCUCAGAGCUCGAGAACAUCUUCGGAUGCAGAGGAGGCAGGCUUCGGUGGCGCGAUAGCGCCAACGUCCUCAACCUCCAAUGCAUCCCACCACAUGAUGAUGCCUGAAGAGCCUUGGUUUUUUG

Variants of: B1
Assay: polymerase ribozyme fitness, log enrichment relative to wild type (log ratio); higher = more active; in vitro selection for triplet polymerase activity
Procedure, shortened: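 Input and output libraries were sequenced on Illumina after a single in vitro selection round, run in triplicate on PCR-built, transcribed mutant libraries of each subunit of a heterodimeric triplet polymerase ribozyme. Selection annealed libraries to a biotinylated primer, the partner subunit and triplets, incubated them frozen at −7 °C, then gel-excised extended constructs for streptavidin-bead capture and RT-PCR. Genotypes with ≥10 input reads and ≥1 read per output were kept. Fitness is the logarithm, taken in base 2, of genotype enrichment divided by wild-type enrichment, using inverse-variance-weighted replicate averages.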

Variant	polymerase ribozyme fitness (log ratio)
C8U A41C A91C C123U	0.0486
A6U C15A A37C C40G C80U U96G	-2.51
U9A U78C C86A A121C	2.18
U92A G113C	-3.49
U78A A111C	-0.127
G63U G93U C124G	-0.616
G36U G48A C70U C82U U133G	-1.79
G25C A29G U33C G60A C98U G113C	-7.69
C8G C20U C49U	-1.11
A5C G17C G44A A83U G120A U131A	-4.99
G61U C62A	-5.14
G57C G110A	-1.6
U21A C72A	-0.312
A2C C73U	-1.65
C56G C64G	-7.2
A68U A111C	-7.12
G58C G117A	-0.561
G48U G57A	-1.01
C62U G117A U131A	-1.44
C8G C73A	1.91
G36C G47U U55G G61U C101U U132A	-3.11

Variant	polymerase ribozyme fitness (log ratio)
C86G U116A	-4.49
A50U A119U	-1.31
C12U C62G U126A	-2.76
G71U G117A U130C	-1.71
A84G U116G	-2.89
C64U U116A G120U	-1.79
C8U C13A A37U G47A C62U G122A	-1.54
C13G A16U C82A C89G	-4.33
G48U U54G	-0.42
G57A G71U C88G	-5.05
G10A C28U A46U A83C A84C C124A	-2.98
U38A U54G U112C G120A	-0.498
C70A U81C	-2.67
A5U C114A	-1.69
G23A G120A	-4.02
U7G U59G C62U A84C A90U A111U C115A	-5.26
A5G C13U G36C C62U C85A U112A G117U	-1.72
C49U U59G C72U	-1.12
C72G C86A G93C C104G A108U U109G A118G	-6.21
C4U C34G G57A U67C G69A C124U G127C	-6.05
A37C G63C A74C	-3.35

Variant	polymerase ribozyme fitness (log ratio)
U92A G120U	-2.93
G69A C104U G127A U129A	-2.62
G63U G117U	-2.02
A27G G93C C104U	-3.11
G77U C79U U106C	-0.595
C98U U116A	-4.71
G44U G47U U55C	-2.82
G47U U131G	-1.85
G39C U55G A119U	-0.691
U9A C73U G113A	-0.0138
G63A C64U C73G C80U G93A C97U G117U	-6.14
C12G A26U C34U G42U G44U C62G U96C U106A U109A C115G	-6.33
C34A G71A U78C C94U U125A	-5.82
C31U A46U C85U	-7.42
U7C A37U A41C G47U C53G G65A C85G A95C A111G A118U	-7.71
G57U U116C	-1.31
C8G U78A G113U C115A G120C	-2.48
C12A C72A	0.329
U9G A43C	-1.01
U14C C40A U87C	-3.01
C34A G113A	-4.03

Variant	polymerase ribozyme fitness (log ratio)
U21A G44A	-1.07
C8U C11U C70U C73U C102A	-3.01
C8U C40U G52A C79G	-0.696
C8A A74C G93C U116A	-2.46
A100U U106C	-0.792
C20A U96G	-3.33
C3U C80G	-5.98
C56U G107U	-4.6
C62G U106C U131A	-2.52
G10A U33C A90G A118G	-6.66
A16U C79U A91G C123G U131G	-1.49
G42C G44U A50C U125A	-3.27
C13U A46U U130G	-2
C11G C20G C73U U106A G107A	-5.37
C12A C34G G122U	-5.34
G45A C98U	-1.75
U33C U132A	-4.81
U9A C15A A37G C56U G65A C79G C86G C115A	-7.1
G44U G71U	-1.06
C13U G128C	-1.81
